Measurements as given in paper PMC6075034.

T1: Yra1 (Saccharomyces cerevisiae, UniProt Q12159 1-226)
T1 sequence: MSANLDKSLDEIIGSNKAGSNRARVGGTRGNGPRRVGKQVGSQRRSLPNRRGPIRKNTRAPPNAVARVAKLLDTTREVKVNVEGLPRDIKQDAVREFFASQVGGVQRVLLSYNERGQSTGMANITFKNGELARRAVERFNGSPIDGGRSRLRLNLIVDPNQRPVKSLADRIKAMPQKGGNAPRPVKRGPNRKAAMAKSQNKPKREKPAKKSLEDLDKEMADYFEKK


Target: T1, Yra1
Experiment: EMSA

Binder	binding result
25-bp RNA-DNA hybrid (RNA-25/DNA-25C) (DNA:RNA) RNA: GUGUAAUGUUGUUGCACGGCACGCU DNA: AGCGTGCCGTGCAACAACATTACAC	binds
GUGUAAUGUUGUUGCACGGCACGCU (ssRNA) [RNA-25 ssRNA]	binds
AGCGTGCCGTGCAACAACATTACAC (ssDNA) [DNA-25C ssDNA]	binds
25-bp dsRNA (RNA-25 + complementary RNA; RNA-25C is printed identical to RNA-25, apparent misprint, complement built) (dsRNA) RNA 1: GUGUAAUGUUGUUGCACGGCACGCU RNA 2: AGCGUGCCGUGCAACAACAUUACAC	binds
